Read-outs that look alike come from different tables or passages of the source. Each block holds one molecule with its values, some of them ahead of it. Where a SMILES comes first, the peptide text is derived from it. Where no end group is shown, it is not given here. [ ]: non-standard residue; d: D form. The star is where a group is joined. DOTA = O=C(O)CN1CCN(CC(=O)O)CCN(CC(=O)*)CCN(CC(=O)O)CC1; Met(O2) = CS(=O)(=O)CC[C@H](N)C(=O)O; NS3/CN = chelator carrying 99mTc; 2Thi = N[C@@H](Cc1cccs1)C(=O)O
Assays:
[1] = Lipophilicity (logP), partition in n-octanol/PBS (pH 7.4); type: physicochemical
Experimental: The partition coefficient was measured for each compound in a biphasic system of n-octanol/PBS (pH 7.4). The biphasic mixture was shaken (vortex, 1 min) and then centrifuged (14,000 rpm, 5 min) before the organic (n-octanol) and aqueous (PBS, pH 7.4) phases were separated. The activity of each phase (corresponding to the content of radiobioconjugate) was determined by measuring γ-radiation, using a well-type NaI(Tl) detector. P was calculated as the ratio of activity in the organic versus aqueous phases (as an average value from at least three independent measurements). Immediately after the γ-radiation measurements, the aqueous phase was analyzed by HPLC (system 2) to determine whether the tested radiobioconjugate existed in the liquid phase in an unchanged form.

[2] = type: in vitro ADME, human
Experimental: Stability tests of 2a–e compounds in CSF and HS were performed similarly to the previous one. The solution (0.1 mL) of isolated 2a–e radiobioconjugate in 0.1 M PBS buffer (pH 7.4), was added to 0.9 mL of CSF or HS and incubated at 37 °C. After specific time intervals (1, 2, 4 and 24 h), a small sample (0.1–0.2 mL) of the mixture was taken, mixed with ethanol (0.3–0.5 mL) and shaken vigorously to precipitate protein components as well as part of the tested radiobioconjugate bound to protein components. The sample was then centrifuged (14,000 rpm, 5 min) and the supernatant separated. The radioactivities of both supernatant and precipitate were measured using the well-type NaI(Tl) detector (Institute of Nuclear Chemistry and Technology, Warsaw, Poland). […]

[3] = target: T1, NK-1 receptors expressed on glioblastoma cells (U373 MG) (Homo sapiens, UniProt P25103); test: Saturation binding studies on U373 MG cells; conditions: 37 °C, 1.5 h, Scatchard analysis, mean ± SD of three experiments
T1 construct: host or cells: U373 MG (Uppsala) human glioblastoma astrocytoma cells
Experimental: To determine the affinity of selected radiobioconjugates: […] One day before the experiment, 8 × 10^5 cells/well were seeded in six-well plates. To determine total binding, different concentrations of peptides (15.3 pM to 100 nM) were added to the cells and incubated at 37 °C for 1.5 h. Cellular uptake was stopped by aspirating the reaction supernatant, followed by washing twice with 1 mL of cold PBS. Finally, the cells were lysed using 1 M NaOH to detach them from the well plates. To determine nonspecific binding, the cells were incubated with 1000-fold excess of unlabelled peptides. The radioactivities of collected samples with cell pellets and supernatants were measured using Perkin Elmer automatic γ-counter. The specific binding was obtained by subtracting nonspecific binding from total binding. For estimating the receptor density (Bmax) and the dissociation constant (Kd) of the receptor for the studied radiobioconjugates, the Scatchard analysis method was used. Results are means ±SD of three individual experiments.

[4] = target: [177Lu]DOTA-[Thi8,Met(O2)11]Substance P(1-11) 1-11 (Homo sapiens, UniProt P20366, 177Lu-DOTA, Thi8, Met(O2)11); test: radioligand binding
[5] = target: [177Lu]DOTA-[Thi8,Met(O2)11]Substance P(5-11) 5-11 (Homo sapiens, UniProt P20366, 177Lu-DOTA, Thi8, Met(O2)11); test: radioligand binding
[6] = target: [177Lu]DOTA-Substance P(4-11) 4-11 (Homo sapiens, UniProt P20366, 177Lu-DOTA); test: radioligand binding

Molecule: [^99mTc]NS3/CN-SP(5–11) ({NS3/CN}-QQFFGLM; ends and bridges not checked; also: 99mTc complex of NS3/CN chelate; UniProt P20366 62-68, looked up, fragment) [1d, SP(5–11) labelled with technetium-99m via NS3/CN-BFCA]
- logP ([1]; pH 7.4): 1.14 ± 0.01

Molecule: CSCC[C@H](NC(=O)[C@H](CC(C)C)NC(=O)CNC(=O)[C@H](Cc1ccccc1)NC(=O)[C@H](Cc1ccccc1)NC(=O)[C@H](CCC(N)=O)NC(=O)[C@H](CCC(N)=O)NC(=O)CN1CCN(CC(=O)O)CCN(CC(=O)O)CCN(CC(=O)O)CC1)C(N)=O [2d, [^177Lu]DOTA-SP(5–11), metal not drawn] ({DOTA}-QQFFGLM-NH2)
- Enzymatic biomolecule biodegradation in human serum (ITLC) [2]: virtually all of the radiobiomolecule that was deposited onto the strip was degraded enzymatically
- logP ([1]; pH 7.4): -2.68 ± 0.01

Molecule: CSCC[C@H](NC(=O)[C@H](CC(C)C)NC(=O)CNC(=O)[C@H](Cc1ccccc1)NC(=O)[C@H](Cc1ccccc1)NC(=O)[C@H](CCC(N)=O)NC(=O)[C@H](CCC(N)=O)NC(=O)[C@@H]1CCCN1C(=O)[C@H](CCCCN)NC(=O)[C@@H]1CCCN1C(=O)[C@H](CCCNC(=N)N)NC(=O)CN1CCN(CC(=O)O)CCN(CC(=O)O)CCN(CC(=O)O)CC1)C(N)=O [2a, [^177Lu]DOTA-SP(1–11), metal not drawn]
- Enzymatic biomolecule biodegradation in human serum (ITLC) [2]: only partial
- logP ([1]; pH 7.4): -5.12 ± 0.06

- Kd [3]: 0.0133 ± 0.0016 µM
Molecule: CSCC[C@H](NC(=O)[C@H](CC(C)C)NC(=O)CNC(=O)[C@H](Cc1ccccc1)NC(=O)[C@H](Cc1ccccc1)NC(=O)[C@H](CCC(N)=O)NC(=O)[C@H](CCC(N)=O)NC(=O)[C@@H]1CCCN1C(=O)CN1CCN(CC(=O)O)CCN(CC(=O)O)CCN(CC(=O)O)CC1)C(N)=O [2c, [^177Lu]DOTA-SP(4–11), metal not drawn]
- Enzymatic biomolecule biodegradation in human serum (ITLC) [2]: only partial
- logP ([1]; pH 7.4): -2.93 ± 0.01

Molecule: [^99mTc]NS3/CN-SP(4–11) ({NS3/CN}-PQQFFGLM; ends and bridges not checked; also: 99mTc complex of NS3/CN chelate; UniProt P20366 61-68, looked up, fragment) [1c, SP(4–11) labelled with technetium-99m via NS3/CN-BFCA]
- logP ([1]; pH 7.4): 0.09 ± 0.02

Molecule: [C-]#[N+]CCCC(=O)N[C@@H](CCCNC(=N)N)C(=O)N1CCC[C@H]1C(=O)N[C@@H](CCCCN)C(=O)N1CCC[C@H]1C(=O)N[C@@H](CCC(N)=O)C(=O)N[C@@H](CCC(N)=O)C(=O)N[C@@H](Cc1ccccc1)C(=O)N[C@@H](Cc1ccccc1)C(=O)NCC(=O)N[C@@H](CC(C)C)C(=O)N[C@@H](CCSC)C(N)=O [1a, [^99mTc]NS3/CN-SP(1–11), metal not drawn]
- logP ([1]; n-octanol/PBS pH 7.4, [99mTc]NS3/CN-SP radiobioconjugates, read-out: logP): 0.26 ± 0.05

Molecule: [^99mTc]NS3/CN-[Thi^8,Met(O2)^11]SP(5–11) [1e]
- logP ([1]; pH 7.4): 0.64 ± 0.02

- Kd [3]: 0.0111 ± 0.0027 µM
Molecule: CC(C)C[C@H](NC(=O)CNC(=O)[C@H](Cc1cccs1)NC(=O)[C@H](Cc1ccccc1)NC(=O)[C@H](CCC(N)=O)NC(=O)[C@H](CCC(N)=O)NC(=O)[C@@H]1CCCN1C(=O)[C@H](CCCCN)NC(=O)[C@@H]1CCCN1C(=O)[C@H](CCCNC(=N)N)NC(=O)CN1CCN(CC(=O)O)CCN(CC(=O)O)CCN(CC(=O)O)CC1)C(=O)N[C@@H](CCS(C)(=O)=O)C(N)=O [2b, [^177Lu]DOTA-[Thi^8,Met(O2)^11]SP(1–11), metal not drawn]
- Enzymatic biomolecule biodegradation in human serum (ITLC) [2]: only partial
- logP ([1]; pH 7.4): -5.28 ± 0.02

- Kd [3]: 0.0487 ± 0.0051 µM
Molecule: CC(C)C[C@H](NC(=O)CNC(=O)[C@H](Cc1cccs1)NC(=O)[C@H](Cc1ccccc1)NC(=O)[C@H](CCC(N)=O)NC(=O)[C@H](CCC(N)=O)NC(=O)CN1CCN(CC(=O)O)CCN(CC(=O)O)CCN(CC(=O)O)CC1)C(=O)N[C@@H](CCS(C)(=O)=O)C(N)=O [2e, [^177Lu]DOTA-[Thi^8,Met(O2)^11]SP(5–11), metal not drawn] ({DOTA}-QQF[2Thi]GL[Met(O2)]-NH2)
- Enzymatic biomolecule biodegradation in human serum (ITLC) [2]: virtually all of the radiobiomolecule that was deposited onto the strip was degraded enzymatically
- logP ([1]; pH 7.4): -3.94 ± 0.01

- Kd [4]: 0.0111 µM
- Kd [5]: 0.0487 µM
- Kd [6]: 0.0133 µM
B1: NK-1 receptor (protein)
chain: MDNVLPVDSDLSPNISTNTSEPNQFVQPAWQIVLWAAAYTVIVVTSVVGNVVVMWIILAHKRMRTVTNYFLVNLAFAEASMAAFNTVVNFTYAVHNEWYYGLFYCKFHNFFPIAAVFASIYSMTAVAFDRYMAIIHPLQPRLSATATKVVICVIWVLALLLAFPQGYYSTTETMPSRVVCMIEWPEHPNKIYEKVYHICVTVLIYFLPLLVIGYAYTVVGITLWASEIPGDSSDRYHEQVSAKRKVVKMMIVVVCTFAICWLPFHIFFLLPYINPDLYLKKFIQQVYLAIMWLAMSSTMYNPIIYCCLNDRFRLGFKHAFRCCPFISAGDYEGLEMKSTRYLQTQGSVYKVSRLETTISTVVGAHEEEPEDGPKATPSSLDLTSNCSSRSDSKTMTESFSFSSNVLS

— publication PMC6222600, “Application of Neurokinin-1 Receptor in Targeted Strategies for Glioma Treatment. Part I: Synthesis and Evaluation of Substance P Fragments Labeled with ^99mTc and ^177Lu as Potential Receptor Radiopharmaceuticals” (Molecules : A Journal of Synthetic Chemistry and Natural …, 2018)
